Reference: patent US20240350646A1, “METHODS AND COMPOSITIONS FOR DELIVERY TO AND ACROSS THE BLOOD BRAIN BARRIER” (NUtech Ventures, priority 2021, published 2024)

B1: C1C2-NP (C1C2 peptide conjugated to PEG diacid coated ultrasmall Gd nanoparticles) (peptide)
peptide: Ac-SSVSQSTGQIQSKVDSLLNLNSTQATR-NH2
modifications: not fully specified; also: conjugated by EDC-NHS chemistry to PEG diacid on Gd oxide nanoparticle surface (19 peptides per 3.5 nm particle)
notes: The protein part is the C1C2 peptide; the core is not a protein; also called C1C2-NPs; C1C2 NPs

Assays:
[1] = K^trans DCE-MRI: brain region accumulation and retention of NPs; type: in vivo, C57BL/6J mice; details: for K^trans, corpus callosum (CC): 100 μL of 0.5 mM NP via tail vein
Description: Both male and female young (6-8 weeks) C57BL/6J mice (Jackson Laboratory, Bar Harbor, ME) and middle aged (12 months) C57BL/6J and CX3CR1-GFP (Jackson Laboratory, Bar Harbor, ME) from a C57BL/6J background mice were used. Mice were housed in a 12 h/12 h day/night cycle with ad libitum access to standard mouse chow and water. All animal work was approved by and performed under the guidance of the University of Nebraska-Lincoln IACUC.
In vivo NP assessment consisted of dynamic contrast-enhanced (DCE)-MRI using a 9.4T MRI system (Varian) to compare targeting agent effect on the uptake as previously described (Miller et al., 2019, Scientific Reports, 9:16099). Briefly, mice were induced with about 2% isoflurane gas and maintained at a concentration sufficient to achieve 50 to 80 breaths per minute. Baseline T1 maps were generated using a gradient-echo sequence and the variable flip angle method with two angles, 10° and 30° (Deoni et al., 2003, Magn. Reson. Med., 49:515-26). Mice were injected with 100 μL of a 0.5 mM NP solution via tail vein catheter followed by 100 μL PBS to flush all remaining NP solution. A flip angle of 30° was used for all post-contrast scans, which occurred for 1 h following injection. TR was between 54 and 84 ms, TE between 2.73 and 4.24 ms, matrix size between 128×128 and 256×256, FOV between 20×20×10 mm^3 and 25×25×10 mm^3 depending on the experiment. NEX varied with matrix size to maintain temporal resolution, with 128×128, NEX=5 for all scans, with 256×256, NEX=4 for baseline and 1 for post-contrast scans.
Following serial image acquisition, resulting in about 100 post-contrast scans per animal, R1, concentration, and K^trans mapping were performed using custom MATLAB script. R1 mapping was performed using the variable flip angle method based on the following equation (Deoni et al., 2005, Magn. Reson. Med., 53:237-41: […]
where SSPGR is signal intensity, α is FA, E1 is […], and M0 is a proportionality factor related to longitudinal magnetization. E1 describes the linear relationship between the two signal intensity ratios, taking the slope, m, of that line enables calculation of T1 as:
Concentration maps were then generated by comparison of baseline R1 maps with post-contrast R1 maps using the following equation: […]
where C(t) is the concentration at time t, R1(t) is the post contrast R1-value at t, RT(t0) is baseline R1, and r1 is relaxivity of the contrast agent. K^trans, the contrast extravasation rate constant, mapping was then performed using a reference region (RR) model derived from the extended Tofts' model (Tofts et al., 1999, J. Magn. Reson. Imaging, 10:223-232):
where CTOI and CRR are concentrations in the tissue of interest (TOI) and the RR, respectively, K^trans,TOI and K^trans, RR are K^trans in the TOI and RR, respectively, and ve,TOI and ve,RR are extravascular-extracellular volume fractions for the TOI and RR, respectively. Muscle tissue from within the FOV was used in all animals as the RR. MATLAB was used to execute a least squares curve fitting routine to calculate K^trans for each voxel in the brain.

[2] = target: T1, recombinant human claudin-1 (human, UniProt O95832 1-211, limits assumed); test: microscale thermophoresis, AF647 labeled C1C2-NP fixed at 70 nM, human claudin-1 titrated 2.2-73,500 nM
T1 construct: Expressed and purified as in Vecchio & Stroud 2019, in beta-DDM detergent; also called CLDN1
T1 sequence: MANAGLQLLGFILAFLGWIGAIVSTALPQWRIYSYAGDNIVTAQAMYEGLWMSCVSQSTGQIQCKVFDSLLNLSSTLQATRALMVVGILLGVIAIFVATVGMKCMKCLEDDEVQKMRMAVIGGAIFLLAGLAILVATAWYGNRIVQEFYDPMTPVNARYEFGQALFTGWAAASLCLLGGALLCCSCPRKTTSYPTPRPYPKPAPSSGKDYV
Description: For the binding experiments, the concentration of human claudin-1 was varied from 2.2-73,500 nM and the AF647-labeled C1C2-NP was fixed at 70 nM, while the AF647 labeled NPs and AF647 labeled C1C2 peptide were fixed at 1 and 0.3 μM, respectively. Binding of the AF647 labeled C1C2-NP to human claudin-3, -4, and -9 were tested using 0.4-14000 nM, 0.8-28000 nM, and 0.6-20000 nM, respectively; with the AF647 labeled C1C2-NP fixed at 70 nM. This assay buffer was similar, except β-DDM was replaced with 0.1% n-Undecyl-β-D-Maltopyranoside (beta-UDM). In order to check non-specific binding of β-DDM micelles to the AF647 labeled C1C2-NP, the concentration of beta-DDM was varied from 0.03-900 μM and the concentration of the AF647-labeled C1C2-NP was fixed at 1 μM. A similar experiment was performed wherein the concentration of beta-UDM was varied from 0.3-10,000 μM and the concentration of AF647-labeled control NP was fixed at 1 μM. […] All experiments were conducted at 23° C. using the nano-red channel of the Monolith instrument and the data were analyzed by using either Monolith analysis software or Graph Pad Prism, version 9 (Graph Pad Software, San Diego, California).
To assess the binding affinity of C1C2-NPs to human claudin-1, C1C2-NPs were labeled with AF647 and binding to recombinant human claudin-1 quantified using MST. […]

[3] = old (1-year-old) mice, listed as C1C2-NPs

Row | Molecule | K^trans, cortex (CTX) ([1]; old (1-year-old) mice) | K^trans, hippocampus (HC) ([1]; old (1-year-old) mice) | K^trans, hypothalamus (HT) ([1]; old (1-year-old) mice) | K^trans, muscle ([1]; old (1-year-old) mice) | K^trans, corpus callosum (CC) ([1]; old (1-year-old) mice) | K^trans, corpus callosum (CC) [1, 3] | K^trans, cortex (CTX) [1, 3] | K^trans, hippocampus (HC) [1, 3] | K^trans, hypothalamus (HT) [1, 3] | K^trans, cortex (CTX) ([1]; young mice) | K^trans, hippocampus (HC) ([1]; young mice) | K^trans, hypothalamus (HT) ([1]; young mice) | K^trans, muscle ([1]; young mice) | K^trans, corpus callosum (CC) ([1]; young mice) | Kd [2]
1 | C1C2-NP: PEG diacid coated ultrasmall Gd NP conjugated with C1C2 peptide SSVSQSTGQIQSKVDSLLNLNSTQATR (SEQ ID NO: 6); claudin-1 targeted (Ac-SSVSQSTGQIQSKVDSLLNLNSTQATR-NH2; also: conjugated to PEG diacid coated ultrasmall Gd nanoparticle) | 0.0148 min⁻¹ | 0.0040 min⁻¹ | 0.0102 min⁻¹ | 0.0057 min⁻¹ | 0.0058 min⁻¹ | 0.0058 min⁻¹ | 0.0145 min⁻¹ | 0.0040 min⁻¹ | 0.0134 min⁻¹ | 0.0022 min⁻¹ | 0.0019 min⁻¹ | 0.0026 min⁻¹ | 0.0028 min⁻¹ | 0.0019 min⁻¹ | –
2 | B1 | – | – | – | – | – | – | – | – | – | – | – | – | – | – | 21 µM
